In patent US20240279304A1, “DSG2 COMPOSITIONS AND METHODS” (Arvada Therapeutics, Inc., priority 2021, published 2024):

Experiments:
anti-DSG2 antibody [1] = test: anti-DSG2 antibody meso scale discovery (MSD) assay, blocking of anti-DSG2 antibody; format: binding; settings: for % inhibition: fraction C (table title)
Protocol: (§1) The DSG2 fusion polypeptides were tested for the ability to block anti-DSG2 antibody by an anti-DSG2 antibody meso scale discovery (MSD) assay. […] The DSG2 fusion polypeptides were subjected to size exclusion chromatography and different elution fractions were examined. […] As shown in Table 7 and FIG. 1B, FIG. 1C, and FIG. 1D, enriching for fraction C improved the ability of the DSG2 fusion polypeptides to block ARVC patient serum.

[2] = Dynamic light scattering (DLS) of DSG2 fusion polypeptides; format: physicochemical; settings: average polymer distribution index
Excerpt: 6 candidates were compared to the reference sample.

anti-DSG2 antibody [3] = test: anti-DSG2 antibody MSD assay; inhibition by the fusion polypeptide (fraction C per table title); antibody at 1000 ng/mL
anti-DSG2 antibody [4] = test: anti-DSG2 antibody MSD assay; inhibition by the fusion polypeptide (fraction C per table title); antibody at 200 ng/mL
anti-DSG2 antibody [5] = test: electrochemical immunoassay; fusion polypeptide at 5 mg/mL (so in the source), antibody at 500 ng/mL
[6] = tested on: ARVC serum (anti-DSG2 antibodies in serum obtained from ARVC patients); test: anti-DSG2 antibody MSD assay, blocking of ARVC patient serum; format: binding, human; design: % inhibition: concentration or dose not given beside the values; settings: for effect of enriching for fraction C on ability to block ARVC patient serum (in words): fraction C vs whole preparation, FIG. 1B-1D; for % inhibition: fraction C (table title)
Protocol: as §1
ARVC diagnosis is based on complex tool known as Task Force Criteria, which can lead to varying levels of conviction about ARVC diagnosis. The utility of DSG2 antibodies as an indicator of ARVC disease state and severity was explored. Approximately 50 cc serum was collected from diagnosed ARVC patients. A total of 10 ARVC patients and 5 healthy controls were used for the analysis. ARVC serum samples were separated into more robust diagnosis and less robust diagnosis, based on available data in the patient medical records and anti-DSG2 antibody levels were compared using an anti-DSG2 antibody meso scale discovery (MSD)-based assay.

[7] = sample: Anti-DSG2 antibody (200 ng/mL) control
[8] = sample: Anti-DSG2 antibody (1000 ng/mL) control

Question: With “DSG2FP#6: DSG2 extracellular domain (50-609 of SEQ ID NO: 1); IgG4 Fc 99-327 (S228P, L235E, P329G) SEQ ID NO: 32” as the molecule, how does the “ability to bind to and block anti-DSG2 antibody (in words)” value (“ability to bind” below) (anti-DSG2 antibody [1]) read?
Answer: able to bind to and block anti-DSG2 antibodies

Question: And the PDI [2]?
Answer: 0.32

Question: With “DSG2-EAAAK-(IgG1)Fc (DSG2FP#4) (Fc fusion)” as the molecule, how does the % inhibition (anti-DSG2 antibody [3]) read?
Answer: 85.5%

Question: And the % inhibition (anti-DSG2 antibody [4])?
Answer: 61.2%

Question: With “DSG2FP#7: DSG2 extracellular domain (50-609 of SEQ ID NO: 1); GGGGS peptide linker; IgG4 Fc domain” as the molecule, how does the “ability to bind” value (anti-DSG2 antibody [1]) read?
Answer: able to bind to and block anti-DSG2 antibodies

Question: What about the PDI [2] of the same molecule?
Answer: 0.30

Question: Which % inhibition (anti-DSG2 antibody [3]) does the source give for “DSG2-GGGGS-(IgG1)Fc (DSG2FP#3) (Fc fusion)” here?
Answer: 85.5%

Question: And the % inhibition (anti-DSG2 antibody [4])?
Answer: 61.2%

Question: With “DSG2-GGGGS-(IgG4)Fc (DSG2FP#7) (Fc fusion)” as the molecule, how does the % inhibition (anti-DSG2 antibody [5]) read?
Answer: > 80%

Question: With DSG2-(IgG4)Fc (DSG2FP#6) (Fc fusion) as the molecule, how does the % inhibition (anti-DSG2 antibody [5]) read?
Answer: > 80%

Question: For DSG2-(IgG1)Fc (DSG2FP#2) (Fc fusion), which % inhibition (anti-DSG2 antibody [3]) is on record?
Answer: 81.6%

Question: And the % inhibition (anti-DSG2 antibody [4])?
Answer: 54.5%

Question: With “DSG2FP#5: IgG1 Fc 104-330 (L234A, L235A, P329G; SEQ ID NO: 31); DSG2 extracellular domain (50-609 of SEQ ID NO: 1)” as the molecule, how does the “ability to bind” value (anti-DSG2 antibody [1]) read?
Answer: able to bind to and block anti-DSG2 antibodies

Question: And the PDI [2]?
Answer: 0.31

B1: DSG2FP#2: DSG2 extracellular domain (50-609 of SEQ ID NO: 1); IgG1 Fc 104-330 (L234A, L235A, P329G) SEQ ID NO: 31 (protein)
chain: AWITAPVALREGEDLSKKNPIAKIHSDLAEERGLKITYKYTGKGITEPPFGIFVFNKDTGELNVTSILDREETPFFLLTGYALDARGNNVEKPLELRIKVLDINDNEPVFTQDVFVGSVEELSAAHTLVMKINATDADEPNTLNSKISYRIVSLEPAYPPVFYLNKDTGEIYTTSVTLDREEHSSYTLTVEARDGNGEVTDKPVKQAQVQIRILDVNDNIPVVENKVLEGMVEENQVNVEVTRIKVFDADEIGSDNWLANFTFASGNEGGYFHIETDAQTNEGIVTLIKEVDYEEMKNLDFSVIVANKAAFHKSIRSKYKPTPIPIKVKVKNVKEGIHFKSSVISIYVSESMDRSSKGQIIGNFQAFDEDTGLPAHARYVKLEDRDNWISVDSVTSEIKLAKLPDFESRYVQNGTYTVKIVAISEDYPRKTITGTVLINVEDINDNCPTLIEPVQTICHDAEYVNVTAEDLDGHPNSGPFSFSVIDKPPGMAEKWKIARQESTSVLLQQSEKKLGRSEIQFLISDNQGFSCPEKQVLTLTVCECLHGSGCREAQHDSYVGDKTHTCPPCPAPEAAGGPSVFLFPPKPKDTLMISRTPEVTCVVVDVSHEDPEVKFNWYVDGVEVHNAKTKPREEQYNSTYRVVSVLTVLHQDWLNGKEYKCKVSNKALGAPIEKTISKAKGQPREPQVYTLPPSRDELTKNQVSLTCLVKGFYPSDIAVEWESNGQPENNYKTTPPVLDSDGSFFLYSKLTVDKSRWQQGNVFSCSVMHEALHNHYTQKSLSLSPGK
Question: With B1 as the molecule, how does the “ability to bind” value (anti-DSG2 antibody [1]) read?
Answer: able to bind to and block anti-DSG2 antibodies

Question: And the “% inhibition” value (anti-DSG2 antibody [1]; [7])?
Answer: 54.5%

Question: What about the “% inhibition” value (anti-DSG2 antibody [1]; [8]) of the same molecule?
Answer: 81.6%

Question: What about the “% inhibition” value (anti-DSG2 antibody [1]; sample: no antibody control) of the same molecule?
Answer: −19.1%

Question: What about the PDI [2] of the same molecule?
Answer: 0.32

Question: What about the “effect of enriching for fraction C on ability to block ARVC patient serum (in words)” value [6] of the same molecule?
Answer: more pronounced

Question: And the “% inhibition” value ([6]; sample: ARVC serum 1)?
Answer: 3.0%

Question: What about the “% inhibition” value ([6]; sample: ARVC serum 2) of the same molecule?
Answer: 33.5%

Question: What about the “% inhibition” value ([6]; sample: ARVC serum 3) of the same molecule?
Answer: 26.0%

Question: And the “% inhibition” value ([6]; sample: ARVC serum 4)?
Answer: 51.1%

Question: What about the “% inhibition” value ([6]; sample: ARVC serum 5) of the same molecule?
Answer: 41.8%

B2: DSG2FP#3: DSG2 extracellular domain (50-609); linker GGGGS; IgG1 Fc 104-330 (L234A, L235A, P329G) SEQ ID NO: 31 (protein)
chain: AWITAPVALREGEDLSKKNPIAKIHSDLAEERGLKITYKYTGKGITEPPFGIFVFNKDTGELNVTSILDREETPFFLLTGYALDARGNNVEKPLELRIKVLDINDNEPVFTQDVFVGSVEELSAAHTLVMKINATDADEPNTLNSKISYRIVSLEPAYPPVFYLNKDTGEIYTTSVTLDREEHSSYTLTVEARDGNGEVTDKPVKQAQVQIRILDVNDNIPVVENKVLEGMVEENQVNVEVTRIKVFDADEIGSDNWLANFTFASGNEGGYFHIETDAQTNEGIVTLIKEVDYEEMKNLDFSVIVANKAAFHKSIRSKYKPTPIPIKVKVKNVKEGIHFKSSVISIYVSESMDRSSKGQIIGNFQAFDEDTGLPAHARYVKLEDRDNWISVDSVTSEIKLAKLPDFESRYVQNGTYTVKIVAISEDYPRKTITGTVLINVEDINDNCPTLIEPVQTICHDAEYVNVTAEDLDGHPNSGPFSFSVIDKPPGMAEKWKIARQESTSVLLQQSEKKLGRSEIQFLISDNQGFSCPEKQVLTLTVCECLHGSGCREAQHDSYVGGGGGGSDKTHTCPPCPAPEAAGGPSVFLFPPKPKDTLMISRTPEVTCVVVDVSHEDPEVKFNWYVDGVEVHNAKTKPREEQYNSTYRVVSVLTVLHQDWLNGKEYKCKVSNKALGAPIEKTISKAKGQPREPQVYTLPPSRDELTKNQVSLTCLVKGFYPSDIAVEWESNGQPENNYKTTPPVLDSDGSFFLYSKLTVDKSRWQQGNVFSCSVMHEALHNHYTQKSLSLSPGK
Question: Which “ability to bind” value (anti-DSG2 antibody [1]) does the source give for B2 here?
Answer: able to bind to and block anti-DSG2 antibodies

Question: And the “% inhibition” value (anti-DSG2 antibody [1]; [7])?
Answer: 61.2%

Question: What about the “% inhibition” value (anti-DSG2 antibody [1]; [8]) of the same molecule?
Answer: 85.5%

Question: What about the “% inhibition” value (anti-DSG2 antibody [1]; sample: no antibody control) of the same molecule?
Answer: 0.7%

Question: What about the PDI [2] of the same molecule?
Answer: 0.30

Question: And the “effect of enriching for fraction C on ability to block ARVC patient serum (in words)” value [6]?
Answer: more pronounced

Question: And the “% inhibition” value ([6]; sample: ARVC serum 1)?
Answer: 9.2%

Question: What about the “% inhibition” value ([6]; sample: ARVC serum 2) of the same molecule?
Answer: 27.6%

Question: What about the “% inhibition” value ([6]; sample: ARVC serum 3) of the same molecule?
Answer: 15.5%

Question: And the “% inhibition” value ([6]; sample: ARVC serum 4)?
Answer: −5.6%

Question: And the “% inhibition” value ([6]; sample: ARVC serum 5)?
Answer: 20.6%

B3: DSG2FP#4: DSG2 extracellular domain (50-609); linker EAAAK; IgG1 Fc 104-330 (L234A, L235A, P329G) SEQ ID NO: 31 (protein)
chain: AWITAPVALREGEDLSKKNPIAKIHSDLAEERGLKITYKYTGKGITEPPFGIFVFNKDTGELNVTSILDREETPFFLLTGYALDARGNNVEKPLELRIKVLDINDNEPVFTQDVFVGSVEELSAAHTLVMKINATDADEPNTLNSKISYRIVSLEPAYPPVFYLNKDTGEIYTTSVTLDREEHSSYTLTVEARDGNGEVTDKPVKQAQVQIRILDVNDNIPVVENKVLEGMVEENQVNVEVTRIKVFDADEIGSDNWLANFTFASGNEGGYFHIETDAQTNEGIVTLIKEVDYEEMKNLDFSVIVANKAAFHKSIRSKYKPTPIPIKVKVKNVKEGIHFKSSVISIYVSESMDRSSKGQIIGNFQAFDEDTGLPAHARYVKLEDRDNWISVDSVTSEIKLAKLPDFESRYVQNGTYTVKIVAISEDYPRKTITGTVLINVEDINDNCPTLIEPVQTICHDAEYVNVTAEDLDGHPNSGPFSFSVIDKPPGMAEKWKIARQESTSVLLQQSEKKLGRSEIQFLISDNQGFSCPEKQVLTLTVCECLHGSGCREAQHDSYVGEAAAKDKTHTCPPCPAPEAAGGPSVFLFPPKPKDTLMISRTPEVTCVVVDVSHEDPEVKFNWYVDGVEVHNAKTKPREEQYNSTYRVVSVLTVLHQDWLNGKEYKCKVSNKALGAPIEKTISKAKGQPREPQVYTLPPSRDELTKNQVSLTCLVKGFYPSDIAVEWESNGQPENNYKTTPPVLDSDGSFFLYSKLTVDKSRWQQGNVFSCSVMHEALHNHYTQKSLSLSPGK
Question: With B3 as the molecule, how does the “ability to bind” value (anti-DSG2 antibody [1]) read?
Answer: able to bind to and block anti-DSG2 antibodies

Question: What about the “% inhibition” value (anti-DSG2 antibody [1]; [7]) of the same molecule?
Answer: 61.2%

Question: And the “% inhibition” value (anti-DSG2 antibody [1]; [8])?
Answer: 85.5%

Question: And the “% inhibition” value (anti-DSG2 antibody [1]; sample: no antibody control)?
Answer: 0.7%

Question: And the PDI [2]?
Answer: 0.32

Question: What about the “% inhibition” value ([6]; sample: ARVC serum 1) of the same molecule?
Answer: 6.0%

Question: And the “% inhibition” value ([6]; sample: ARVC serum 2)?
Answer: 9.2%

Question: What about the “% inhibition” value ([6]; sample: ARVC serum 3) of the same molecule?
Answer: −8.0%

Question: What about the “% inhibition” value ([6]; sample: ARVC serum 4) of the same molecule?
Answer: 0.8%

Question: And the “% inhibition” value ([6]; sample: ARVC serum 5)?
Answer: 2.0%
